# From patent US20110064740A1 (GlaxoSmithKline, published 2011)
# B1: H2L1 Fab, H2 heavy chain truncated at residue 224 of the hinge region (Fab, V domains shown)
# VH: EVQLVESGGGLVQPGGSLRLSCAVSGFTFSDNGMAWVRQAPGKGLEWVSFISNLAYSIDYADTVTGRFTISRDNAKNSLYLQMNSLRAEDTAVYYCVSGTWFAYWGQGTLVTVSS
# VL: DIVMTQSPLSLPVTPGEPASISCRVSQSLLHSNGYTYLHWYLQKPGQSPQLLIYKVSNRFSGVPDRFSGSGSGTDFTLKISRVEAEDVGVYYCSQTRHVPYTFGGGTKVEIKR
# notes: Recombinant Fab from CHOK1 culture supernatant; also called (a) H2L1 Fab
# B2: H2L1 Fab cys, H2 heavy chain truncated at the second cysteine in the hinge region at residue 226 (Fab, V domains shown)
# VH: B1 VH
# VL: B1 VL
# notes: Recombinant Fab from CHOK1 culture supernatant; also called (b) H2L1 Fab cys
# B3: H2L1 Fab His, H2 heavy chain truncated at position 224 with a C-terminal 6x histidine tag including histidine at position 224 (Fab, V domains shown)
# VH: B1 VH
# VL: B1 VL
# notes: Recombinant Fab from CHOK1 culture supernatant
# Biological target: T1, human Aβ peptide (1-40) biotinylated at the C terminus (human, UniProt P05067 672-711, biotinylated at the C-terminus)
# T1 construct: domain: β-amyloid peptide (1-40); Numbers 1-40 count on the β-amyloid peptide, not on APP; also called beta-amyloid 1-40 peptide (biotinylated at the C-terminus); streptavidin-captured beta-amyloid (1-40)
# Test: Aβ binding ELISA with culture supernatant, Aβ peptide (1-40)
# T1 sequence (P05067 672-711 limits assumed): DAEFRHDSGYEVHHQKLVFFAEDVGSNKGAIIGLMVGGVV
row,EC50,Binder
1,0.239 µg/mL,B1
2,0.226 µg/mL,B2
3,0.227 µg/mL,B3
